Experimental data reported in US20170283458A1, “COLLAGEN-BINDING SYNTHETIC PEPTIDOGLYCANS FOR WOUND HEALING” (Symic Biomedical, Inc., priority 2009, published 2017).
Ends that are not written are not given here.

What was measured:
[1] = molecular target: T1, collagen (Bos taurus, UniProt P02453+P02465); test: Fibrillogenesis turbidity assay (absorbance at 313 nm); format: biochemical; settings: 4 mg/mL collagen, 10:1 collagen:treatment unless otherwise indicated
T1 construct: purchased Inamed, Freemont, Calif; Nutragen
Experimental: (§1) Gels were made with Nutragen collagen (Inamed, Freemont, Calif.) at a final concentration of 4 mg/mL collagen. Nutragen stock is 6.4 mg/mL in 10 mM HCl. Gel preparation was performed on ice, and fresh samples were made before each test. The collagen solution was adjusted to physiologic pH and salt concentration, by adding appropriate volumes of 10×PBS (phosphate buffered saline), 1×PBS, and 1M NaOH. For most experiments, samples of DS, decorin, DS-SILY, or DS-Dc13 were added at a 10:1 collagen:treatment molar ratio by a final 1×PBS addition (equal volumes across treatments) in which the test samples were dissolved at appropriate concentrations. In this way, samples are constantly kept at pH 7.4 and physiologic salt concentration. Collagen-alone samples received a 1×PBS addition with no sample dissolved. Fibrillogenesis will be induced by incubating neutralized collagen solutions at 37° C. overnight in a humidified chamber to avoid dehydration. Gel solutions with collagen:treatment molar ratios of other than 10:1 were prepared similarly.
Collagen fibrillogenesis was monitored by measuring turbidity related absorbance at 313 nm providing information on rate of fibrillogenesis and fibril diameter. Gel solutions were prepared as described in EXAMPLE 16 (4 mg/mL collagen, 10:1 collagen:treatment, unless otherwise indicated) and 50 uL/well were added at 4° C. to a 384-well plate. The plate was kept at 4° C. for 4 hours before initiating fibril formation. A SpectraMax M5 at 37° C. was used to measure absorbance at 313 nm at 30 s intervals for 6 hours.
A fibrillogenesis assay as described for DS-SILY, EXAMPLE 19, performed with the conjugate DS-Dc13.

[2] = molecular target: T2, collagen I (Bos taurus, UniProt P02453+P02465); test: Cryo-SEM measurements on collagen I, fibril diameter; format: biochemical; settings: 4 mg/mL collagen, 10:1 collagen:treatment, cryo-SEM 20,000×
T2 construct: purchased Inamed, Freemont, Calif; Nutragen
Experimental: as §1
Gels for cryo-SEM were formed, as in EXAMPLE 16, directly on the SEM stage and incubated at 37° C. overnight. The stages were then secured in a cryo-holder and plunged into liquid nitrogen slush. Samples were then transferred to a Gatan Alto 2500 pre-chamber cooled to −170° C. under vacuum. A free-break surface was created with a cooled scalpel, and each sample evaporated under sublimation conditions for 20 min. The sample was coated by platinum sputter coating for 120 s. Samples were transferred to the cryo-stage at −130° C. and regions with similar orientation were imaged for comparison across treatments. Analysis of the images was performed to determine the fibril diameter distribution, presented in histograms adjacent the corresponding image in FIG. 14, and average fibril diameter, FIG. 17 an 18;. Fibril diameter was calculated using ImageJ software (NIH) measuring individual fibrils by hand (drawing a line across fibrils and measuring its length after properly setting the scale). At least 45 independent fibril measurement were recorded for average fibril diameter calculations.

[3] = tested on: Human coronary artery smooth muscle cells (HCA SMC); test: Gel compaction by smooth muscle cells in collagen gels; format: cell-based; settings: Days 3 and 5
Experimental: Human coronary artery smooth muscle cells (HCA SMC) (Cascade Biologics) were cultured in growth medium (Medium 231 supplemented with smooth muscle growth factor). Cells from passage 3 were used for all experiments. Differentiation medium (Medium 231 supplemented with 1% FBS and 1× pen/strep) was used for all experiments unless otherwise noted.
Collagen gels were prepared with each additive as described with the exception that the 1×PBS example addition was omitted to accommodate the addition of cells in media. After incubating on ice for 30 min, HCA SMCs in differentiation medium were added to the gel solutions to a final concentration of 1×10^6 cells/mL. Gels were formed in quadruplicate in 48-well non-tissue culture treated plates (Costar) for 6 hrs before adding 500 μL/well differentiation medium. Gels were freed from the well edges after 24 hrs. Medium was changed every 2-3 days and images for compaction were taken at the same time points using a Gel Doc System (Bio-Rad). The cross-sectional area of circular gels correlating to degree of compaction was determined using ImageJ software (NIH). Gels containing no cells were used as a negative control and cells in collagen gels absent additive were used as a positive control. […] By day 10 all gels had compacted to approximately 10% of the original gel area, and differences between additives were small.

[4] = tested on: Long-Evans rats; test: Rat incisional model, H&E histological scoring for inflammation; format: in vivo; settings: low and high doses, all time points
Experimental: Using sterile techniques, longitudinal wounds were incised on shaved dorsal skin of the rats. A 4 cm incision was cut through the panniculus down to the skeletal musculature, and a 250 μL single dose of either 10 mg/mL hyaluronic acid (HA) or HA+DS-SILY was applied to the open wound by a syringe. DS-SILY was tested at 0.5, 1, and 2.5 mg/mL mixed with HA. The incision was then sutured closed and animals were returned to individual cages and monitored for complications. Negative control rats received no treatment and were treated identically. A pilot study was performed (n=3) at time points 3, 7, 10, 14, and 21 days, followed by a higher powered study (n=9) for 21 and 28 day time points. […]
H&E stained samples were examined for inflammation by a board certified pathologies blinded to the treatments following a scale adapted from Simhon et al. Trichrome stained samples were evaluated for scar tissue formation by an observer blinded to the treatments using a method established by Beausang et al. in which collagen orientation, density, and maturation are observed and compared to collagen of healthy tissue. A total of 12 tissue samples were analyzed for each study at each time point. Statistics were analyzed by ANOVA using Design Expert software (StatEase, Minneapolis, Minn.). […]

[5] = tested on: Long-Evans rats; test: Rat incisional model, visual scar scoring (visible scar length); format: in vivo
Experimental: Using sterile techniques, longitudinal wounds were incised on shaved dorsal skin of the rats. A 4 cm incision was cut through the panniculus down to the skeletal musculature, and a 250 μL single dose of either 10 mg/mL hyaluronic acid (HA) or HA+DS-SILY was applied to the open wound by a syringe. DS-SILY was tested at 0.5, 1, and 2.5 mg/mL mixed with HA. The incision was then sutured closed and animals were returned to individual cages and monitored for complications. Negative control rats received no treatment and were treated identically. A pilot study was performed (n=3) at time points 3, 7, 10, 14, and 21 days, followed by a higher powered study (n=9) for 21 and 28 day time points.
Photographs of scars were taken at the time of necropsy using a digital camera with predetermined manual settings mounted on a camera stand to standardize focal distance
(FIG. 36). A scale bar was included in each image and was used to determine the visible scar length. At the 21 and 28-day times points, five blinded observers traced the visible scar length using ImageJ software (NIH) to give a quantitative measure of visual scar healing.

T2 sequence (P02453 162-1217 limits assumed): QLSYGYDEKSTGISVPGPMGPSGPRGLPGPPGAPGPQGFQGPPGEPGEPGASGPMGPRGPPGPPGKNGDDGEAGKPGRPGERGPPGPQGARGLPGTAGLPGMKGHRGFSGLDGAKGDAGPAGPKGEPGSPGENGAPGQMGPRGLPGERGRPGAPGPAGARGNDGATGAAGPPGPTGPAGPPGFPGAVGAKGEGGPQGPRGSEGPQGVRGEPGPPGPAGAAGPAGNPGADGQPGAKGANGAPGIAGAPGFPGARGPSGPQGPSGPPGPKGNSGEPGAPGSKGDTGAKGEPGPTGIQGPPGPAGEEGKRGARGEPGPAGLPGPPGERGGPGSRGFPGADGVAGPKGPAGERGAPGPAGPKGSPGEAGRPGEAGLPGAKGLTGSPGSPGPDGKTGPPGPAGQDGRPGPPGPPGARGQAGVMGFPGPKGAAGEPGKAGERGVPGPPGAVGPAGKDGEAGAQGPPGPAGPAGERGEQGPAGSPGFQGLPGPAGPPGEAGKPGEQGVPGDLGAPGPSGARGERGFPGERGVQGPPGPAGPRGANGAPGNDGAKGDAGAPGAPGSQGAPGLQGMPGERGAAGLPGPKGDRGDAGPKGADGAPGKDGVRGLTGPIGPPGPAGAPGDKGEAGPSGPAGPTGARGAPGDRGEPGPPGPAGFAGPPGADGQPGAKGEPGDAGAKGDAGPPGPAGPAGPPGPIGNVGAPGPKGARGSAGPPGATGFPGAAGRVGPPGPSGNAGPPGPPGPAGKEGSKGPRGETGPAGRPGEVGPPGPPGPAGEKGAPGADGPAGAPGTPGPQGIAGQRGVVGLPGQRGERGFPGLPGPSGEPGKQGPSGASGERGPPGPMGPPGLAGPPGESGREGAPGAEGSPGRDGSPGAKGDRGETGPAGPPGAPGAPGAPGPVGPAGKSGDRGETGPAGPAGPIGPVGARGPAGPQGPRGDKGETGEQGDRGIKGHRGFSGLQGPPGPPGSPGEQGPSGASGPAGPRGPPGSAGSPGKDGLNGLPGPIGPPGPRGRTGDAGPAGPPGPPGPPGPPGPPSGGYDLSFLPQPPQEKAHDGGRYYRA
T2 sequence (P02465 80-1117 limits assumed): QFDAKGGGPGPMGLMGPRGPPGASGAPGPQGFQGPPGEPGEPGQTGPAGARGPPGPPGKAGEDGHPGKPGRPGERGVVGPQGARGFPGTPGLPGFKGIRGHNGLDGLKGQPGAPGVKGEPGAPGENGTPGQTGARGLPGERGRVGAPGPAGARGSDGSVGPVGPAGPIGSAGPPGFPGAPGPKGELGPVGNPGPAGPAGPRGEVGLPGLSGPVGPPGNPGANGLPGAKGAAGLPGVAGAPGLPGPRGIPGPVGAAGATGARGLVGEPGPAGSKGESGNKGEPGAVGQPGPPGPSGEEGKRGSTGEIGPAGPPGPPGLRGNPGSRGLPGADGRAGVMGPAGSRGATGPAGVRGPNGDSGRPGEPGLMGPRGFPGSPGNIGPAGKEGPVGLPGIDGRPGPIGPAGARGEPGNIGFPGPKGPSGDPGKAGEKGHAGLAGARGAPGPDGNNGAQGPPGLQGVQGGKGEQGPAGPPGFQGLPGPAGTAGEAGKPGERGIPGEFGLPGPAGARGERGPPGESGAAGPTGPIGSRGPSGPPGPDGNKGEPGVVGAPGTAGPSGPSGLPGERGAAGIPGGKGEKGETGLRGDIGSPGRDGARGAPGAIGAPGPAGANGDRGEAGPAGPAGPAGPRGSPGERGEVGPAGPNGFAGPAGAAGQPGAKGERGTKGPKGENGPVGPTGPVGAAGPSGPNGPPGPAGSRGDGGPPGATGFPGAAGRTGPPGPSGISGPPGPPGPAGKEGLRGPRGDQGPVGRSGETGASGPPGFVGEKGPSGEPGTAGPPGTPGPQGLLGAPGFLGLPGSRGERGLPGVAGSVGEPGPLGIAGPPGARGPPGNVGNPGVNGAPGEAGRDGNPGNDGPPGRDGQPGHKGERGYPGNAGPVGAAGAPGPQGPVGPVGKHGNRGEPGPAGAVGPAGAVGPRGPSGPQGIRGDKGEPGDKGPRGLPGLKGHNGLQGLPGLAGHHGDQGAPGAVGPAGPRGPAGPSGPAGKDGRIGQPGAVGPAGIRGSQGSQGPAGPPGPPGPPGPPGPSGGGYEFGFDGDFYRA
T1 sequence (P02453 162-1217 limits assumed): as the sequence (P02453 162-1217 limits assumed) above
T1 sequence (P02465 80-1117 limits assumed): as the sequence (P02465 80-1117 limits assumed) above

DS-SILY: collagen-binding peptidoglycan in which a single SILY peptide was conjugated to dermatan sulfate via PDPH (RRANAALKAGELYKSILYGC; also: single peptide conjugated to dermatan sulfate via PDPH, site not given here)
rate of fibrillogenesis [1]: decrease the rate of fibrillogenesis
average fibril diameter [2]: significant decrease in average fibril diameter
gel compaction at early time points [3]: significantly compacted more than gels made of collagen alone or collagen with dermatan sulfate
inflammatory response (histological scoring) [4]: does not cause an adverse immune response
inflammatory response (histological scoring) ([4]; listed as peptidoglycan): did not have any adverse inflammatory effect
visible scar length ([5]; 21 days, both doses (0.125 mg, 0.25 mg)): decreased visible scar length measured by 5 blinded observers was significant
visible scar length ([5]; 28 days, high dose (0.25 mg)): not significant at 28 days compared to HA control
